Measured values published in article doi:10.1101/2025.10.29.685385.
Each block holds one substance with its values, some of them ahead of it.

Experiments:
[1] = biological target: OTP homeodomain (amino acids 99-164) (human) (UniProt Q5XKR4); assay: native gel or EMSA; quantitative EMSA, purified HD protein with 34 nM fluorescent P4 probe (a single G added to the spacer of the P3 probe); same buffer; Tau = 4[P2D][D]/[PD]^2 (monomer on DNA to dimer on DNA)
[2] = biological target: ALX4 homeodomain (amino acids 209-274) (human) (UniProt Q9H161); assay: as above
[3] = biological target: PHOX2B Q46R homeodomain (human); assay: native gel or EMSA; quantitative EMSA, purified HD protein with 34 nM fluorescent Q50 P3 probe (TAAT-TAG-ATTA); 20 min at room temperature, 10 mM Tris pH 7.5, 50 mM NaCl, 1 mM MgCl2, 4% glycerol, 0.5 mM DTT, 0.5 mM EDTA, poly(dI-dC), BSA; Tau = 4[P2D][D]/[PD]^2, the factor by which the first HD on the DNA helps the second to bind (monomer on DNA to dimer on DNA)
[4] = biological target: PITX3 homeodomain (human); assay: native gel or EMSA; quantitative EMSA, purified HD protein with 34 nM fluorescent K50 P3 probe (TAAT-CCG-ATTA); 20 min at room temperature, 10 mM Tris pH 7.5, 50 mM NaCl, 1 mM MgCl2, 4% glycerol, 0.5 mM DTT, 0.5 mM EDTA, poly(dI-dC), BSA; Tau = 4[P2D][D]/[PD]^2 (monomer on DNA to dimer on DNA)
[5] = biological target: PHOX2B Q46K homeodomain (human); assay: native gel or EMSA; quantitative EMSA, purified HD protein with 34 nM fluorescent Q50 P3 probe (TAAT-TAG-ATTA); 20 min at room temperature, 10 mM Tris pH 7.5, 50 mM NaCl, 1 mM MgCl2, 4% glycerol, 0.5 mM DTT, 0.5 mM EDTA, poly(dI-dC), BSA; Tau = 4[P2D][D]/[PD]^2, the factor by which the first HD on the DNA helps the second to bind (monomer on DNA to dimer on DNA)

Tau (cooperativity factor) with P4 DNA [2]: 0.792
Substance: ALX4 homeodomain (amino acids 209-274) (from UniProt Q9H161 209-274) (domain or fragment)

Tau (cooperativity factor) with P3 DNA [3]: 1.27
Substance: PHOX2B Q46R homeodomain (domain or fragment)

Tau (cooperativity factor) with P3 DNA [5]: 1.4
Substance: PHOX2B Q46K homeodomain (domain or fragment)

The remaining lines, values behind:

Substance: OTP homeodomain (amino acids 99-164) (from UniProt Q5XKR4 99-164) (domain or fragment)
Tau (cooperativity factor) with P4 DNA [1]: 0.29

Substance: PITX3 homeodomain (domain or fragment)
Tau (cooperativity factor) with P3 DNA [4]: 0.157
